B1: PTPN9 (parent)
chain: NKWTVQYNVSPLSWNVAVKFLMAR

Variants of: B1
Experiment: protein stability index of a GFP-peptide fusion (GPS, HEK-293T) (PSI 1-6); higher = more stable
Settings: c terminus: a fixed tail appended
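Also: lentivirally expressed fusions sorted by FACS into six bins by GFP to DsRed ratio, PSI derived from sequencing read proportions per bin multiplied by bin number.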

Protein stability index, by site and new letter:
R24: S 1.83; M 2.65; A 3.97; L 1.53; T 2.27; N 3.31; K 2.18; P 1.23; H 2.82; G 2.72; W 3.09
V5: K 3.16; M 3.19; A 2.04; Y 1.67; W 5.45
A23: L 4.22; I 2.44; R 2.58; Y 2.98; P 2.3; H 3.31; N 2.54; D 2.21
Q6: D 2.28; F 2.83; V 2.79; R 4.19; M 2.02; A 1.78; Y 2.07; E 3.28; C 2.98
S10: Y 1.82; H 2.23; W 2.48; V 3.2; I 1.62
Y7: M 2.91; R 1.14; N 2.14; F 3.3; C 2.47; Q 1.75; S 2.84; E 2.17; I 2.83; P 1.84; L 2.76
K2: I 3.27; R 1.66; Q 2.27; F 1.49; W 2.89; C 3.56; D 3.84; A 2.25; E 3.64
W3: N 1.31; R 1.97; G 1.77; P 1.7; S 2.1; Q 2.35; T 1.46; Y 2.57; H 1.02
F20: R 3.62; H 1.67; G 2.97; W 3.8; P 1.68; Q 2.38; T 2.1
W14: G 2.35; E 1.28; N 2.06; R 2.4; C 2.29; P 2.08; D 1.62; V 2.4; Q 2.62; M 2.75
A17: T 2.28; Q 3.33; D 1.78; P 2.37
L21: T 2.9; W 1.63; R 3.22; V 3.01; S 3.66; P 1.26; D 2.03
M22: E 1.73; D 2.27; F 3.6; G 1.83; T 2.09; H 2.36; Y 3.05; N 2.06
V16: F 3.88; C 3.82; Q 1.52; N 1.51; M 3.58; P 1.99; E 2.65; H 2.69; R 3.68
V18: D 2.03; F 2.44; S 2.94; N 2.21; I 2.62; P 1.28
N8: D 2.07; R 2.26; S 2; T 2.15; L 2.45
S13: C 3.09; Y 2.32; N 3.31; G 2.81; A 1.35; K 2.74; H 2.51; I 1.99
N15: W 2.27; M 2.53; L 1.92; I 3.96; F 2.02; T 2.89; Y 1.9; P 2.39
V9: S 2; L 2.45; D 2.06; K 2.56; G 3.82; W 2.98; A 3.1; P 1.6; R 1.55
K19: H 3.44; Q 3.01; C 2.41; E 3.72; R 2.64; P 1.28
N1: H 2.3; W 3.28; F 3.7
P11: E 2.43; W 4.3; A 2.01; H 3.88
T4: L 1.71; D 2.22; P 1.76; N 1.81
L12: H 2.66; R 4.48
